Test results: US20210380691A1 (published 2021)
Changes are numbered by the printed parent chain.

T1: human NKp30 (human, UniProt O14931 19-135)
T1 chain: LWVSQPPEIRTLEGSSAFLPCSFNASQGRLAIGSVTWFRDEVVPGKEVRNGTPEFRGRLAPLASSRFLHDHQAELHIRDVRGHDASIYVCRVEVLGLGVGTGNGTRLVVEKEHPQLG

T2: cynomolgus NKp30 (cynomolgus, UniProt P61483 19-135)
T2 chain: T1 chain with V43A, A63S, H69R, R78W, S86G, H113Y

B1: hamster anti-NKp30 antibody 9D9 (antibody, V domains shown)
VH: QIQLQESGPGLVKPSQSLSLSCSVTGFSINTGGYHWNWIRQFPGKKVEWMGYIYSSGTTKYNPSLKSRISITRDTSKNQFFLQLNSVTTEDTATYYCARGDWHYFDYWGQGTMVAVSS
VL: SYTLTQPPLVSVALGQKATIICSGENLSDKYVHWYQQKPGRAPVMVIYENDKRPSGIPDQFSGSNSGNIATLTISKAQAGYEADYYCHCWDSTNSAVFGSGTHLTVL
B2: 9D9-1C1 (antibody, V domains shown)
VH: B1 VH
VL: B1 VL

Experiments:
Assay in all cases: ELISA (A450)
human NKp30 = molecular target: T1, human NKp30
cynomolgus NKp30 = molecular target: T2, cynomolgus NKp30
Rat NKp30 = molecular target: Rat NKp30

| Binder | IC50 (human NKp30) [nM] | IC50 (cynomolgus NKp30) [nM] | IC50 (Rat NKp30) [nM] |
| --- | --- | --- | --- |
| B1 | 0.89 | 0.89 |  |
| B2 |  |  | 0.32 |
